Legend:
Assay in all cases: cell-based or functional assay
[1] = biological target: HIV-1 Env of pseudovirus 0815.v3.c3 (HIV-1)
[2] = biological target: HIV-1 Env of pseudovirus 191084 B7-19 (HIV-1)
[3] = biological target: HIV-1 Env of pseudovirus 191955_A11 (HIV-1)
[4] = biological target: HIV-1 Env of pseudovirus 211-9 (HIV-1)
[5] = biological target: HIV-1 Env of pseudovirus 231966.c02 (HIV-1)
[6] = biological target: HIV-1 Env of pseudovirus 235-47 (HIV-1)
[7] = biological target: HIV-1 Env of pseudovirus 263-8 (HIV-1)
[8] = biological target: HIV-1 Env of pseudovirus 3016.v5.c45 (HIV-1)
[9] = biological target: HIV-1 Env of pseudovirus 3103.v3.c10 (HIV-1)
[10] = biological target: HIV-1 Env of pseudovirus 3301.v1.c24 (HIV-1)
[11] = biological target: HIV-1 Env of pseudovirus 3817.v2.c59 (HIV-1)
[12] = biological target: HIV-1 Env of pseudovirus 6041.v3.c23 (HIV-1)
[13] = biological target: HIV-1 Env of pseudovirus 620345.c01 (HIV-1)
[14] = biological target: HIV-1 Env of pseudovirus 6480.v4.c25 (HIV-1)
[15] = biological target: HIV-1 Env of pseudovirus 6540.v4.c1 (HIV-1)
[16] = biological target: HIV-1 Env of pseudovirus 6545.v4.c1 (HIV-1)
[17] = biological target: HIV-1 Env of pseudovirus 6811.v7.c18 (HIV-1)
[18] = biological target: HIV-1 Env of pseudovirus 6952.v1.c20 (HIV-1)
[19] = biological target: HIV-1 Env of pseudovirus 89-F1_2_25 (HIV-1)
[20] = biological target: HIV-1 Env of pseudovirus 9004SS_A3_4 (HIV-1)
[21] = biological target: HIV-1 Env of pseudovirus 928-28 (HIV-1)
[22] = biological target: HIV-1 Env of pseudovirus A07412M1.vrc12 (HIV-1)
[23] = biological target: HIV-1 Env of pseudovirus BJOX010000.06.2 (HIV-1)
[24] = biological target: HIV-1 Env of pseudovirus BJOX025000.01.1 (HIV-1)
[25] = biological target: HIV-1 Env of pseudovirus C1080.c03 (HIV-1)
[26] = biological target: HIV-1 Env of pseudovirus C3347.c11 (HIV-1)
[27] = biological target: HIV-1 Env of pseudovirus C4118.c09 (HIV-1)
[28] = biological target: HIV-1 Env of pseudovirus P0402_c2_11 (HIV-1)
[29] = biological target: HIV-1 Env of pseudovirus R1166.c01 (HIV-1)
[30] = biological target: HIV-1 Env of pseudovirus R2184.c04 (HIV-1)
[31] = biological target: HIV-1 Env of pseudovirus R3265.c06 (HIV-1)
[32] = biological target: HIV-1 Env of pseudovirus T251-18 (HIV-1)
[33] = biological target: HIV-1 Env of pseudovirus T255-34 (HIV-1)
[34] = biological target: HIV-1 Env of pseudovirus T278-50 (HIV-1)
[35] = biological target: HIV-1 Env of pseudovirus X1193_c1 (HIV-1)
[36] = biological target: HIV-1 Env of pseudovirus X2088_c9 (HIV-1)
[37] = biological target: HIV-1 Env of pseudovirus X2131_C1_B5 (HIV-1)

PGT145 (antibody)
IC50 (Titer in TZM.bl cells) [1]: > 50 µg/mL
IC80 (Titer in TZM.bl cells) [1]: > 50 µg/mL
neutralization IC50 [2]: 0.028 µg/mL
neutralization IC80 [2]: 0.345 µg/mL
neutralization IC50 [3]: < 0.001 µg/mL
neutralization IC80 [3]: < 0.001 µg/mL
IC50 (Titer in TZM.bl cells) [4]: 0.129 µg/mL
IC80 (Titer in TZM.bl cells) [4]: 0.923 µg/mL
IC50 (Titer in TZM.bl cells) [5]: < 0.001 µg/mL
IC80 (Titer in TZM.bl cells) [5]: 0.01 µg/mL
IC50 (Titer in TZM.bl cells) [6]: 3.21 µg/mL
IC80 (Titer in TZM.bl cells) [6]: 36 µg/mL
neutralization IC50 [7]: 32.1 µg/mL
neutralization IC80 [7]: > 50 µg/mL
IC50 (Titer in TZM.bl cells) [8]: > 50 µg/mL
IC80 (Titer in TZM.bl cells) [8]: > 50 µg/mL
IC50 (Titer in TZM.bl cells) [9]: 0.043 µg/mL
IC80 (Titer in TZM.bl cells) [9]: 0.164 µg/mL
IC50 (Titer in TZM.bl cells) [10]: 0.219 µg/mL
IC80 (Titer in TZM.bl cells) [10]: 4.22 µg/mL
IC50 (Titer in TZM.bl cells) [11]: > 50 µg/mL
IC80 (Titer in TZM.bl cells) [11]: > 50 µg/mL
IC50 (Titer in TZM.bl cells) [12]: 0.964 µg/mL
IC80 (Titer in TZM.bl cells) [12]: > 50 µg/mL
IC50 (Titer in TZM.bl cells) [13]: 0.241 µg/mL
IC80 (Titer in TZM.bl cells) [13]: 19.7 µg/mL
IC50 (Titer in TZM.bl cells) [14]: > 50 µg/mL
IC80 (Titer in TZM.bl cells) [14]: > 50 µg/mL
IC50 (Titer in TZM.bl cells) [15]: 0.08 µg/mL
IC80 (Titer in TZM.bl cells) [15]: 5.09 µg/mL
IC50 (Titer in TZM.bl cells) [16]: 0.114 µg/mL
IC80 (Titer in TZM.bl cells) [16]: 3.1 µg/mL
IC50 (Titer in TZM.bl cells) [17]: > 50 µg/mL
IC80 (Titer in TZM.bl cells) [17]: > 50 µg/mL
IC50 (Titer in TZM.bl cells) [18]: 3.12 µg/mL
IC80 (Titer in TZM.bl cells) [18]: > 50 µg/mL
IC50 (Titer in TZM.bl cells) [19]: 0.8 µg/mL
IC80 (Titer in TZM.bl cells) [19]: 20 µg/mL
neutralization IC50 [20]: 0.018 µg/mL
neutralization IC80 [20]: 0.419 µg/mL
neutralization IC50 [21]: > 50 µg/mL
neutralization IC80 [21]: > 50 µg/mL
IC50 (Titer in TZM.bl cells) [22]: 0.002 µg/mL
IC80 (Titer in TZM.bl cells) [22]: 0.023 µg/mL
IC50 (Titer in TZM.bl cells) [23]: > 50 µg/mL
IC80 (Titer in TZM.bl cells) [23]: > 50 µg/mL
IC50 (Titer in TZM.bl cells) [24]: 6.63 µg/mL
IC80 (Titer in TZM.bl cells) [24]: > 50 µg/mL
IC50 (Titer in TZM.bl cells) [25]: 0.024 µg/mL
IC80 (Titer in TZM.bl cells) [25]: 0.146 µg/mL
IC50 (Titer in TZM.bl cells) [26]: 0.005 µg/mL
IC80 (Titer in TZM.bl cells) [26]: 0.044 µg/mL
IC50 (Titer in TZM.bl cells) [27]: < 0.001 µg/mL
IC80 (Titer in TZM.bl cells) [27]: 0.004 µg/mL
IC50 (Titer in TZM.bl cells) [28]: 0.009 µg/mL
IC80 (Titer in TZM.bl cells) [28]: 0.038 µg/mL
IC50 (Titer in TZM.bl cells) [29]: 2.27 µg/mL
IC80 (Titer in TZM.bl cells) [29]: 17.9 µg/mL
IC50 (Titer in TZM.bl cells) [30]: 0.073 µg/mL
IC80 (Titer in TZM.bl cells) [30]: 0.376 µg/mL
IC50 (Titer in TZM.bl cells) [31]: 0.037 µg/mL
IC80 (Titer in TZM.bl cells) [31]: 0.227 µg/mL
IC50 (Titer in TZM.bl cells) [32]: 0.351 µg/mL
IC80 (Titer in TZM.bl cells) [32]: 1.39 µg/mL
IC50 (Titer in TZM.bl cells) [33]: > 50 µg/mL
IC80 (Titer in TZM.bl cells) [33]: > 50 µg/mL
IC50 (Titer in TZM.bl cells) [34]: 10.3 µg/mL
IC80 (Titer in TZM.bl cells) [34]: > 50 µg/mL
IC50 (Titer in TZM.bl cells) [35]: 0.013 µg/mL
IC80 (Titer in TZM.bl cells) [35]: 0.091 µg/mL
IC50 (Titer in TZM.bl cells) [36]: > 50 µg/mL
IC80 (Titer in TZM.bl cells) [36]: > 50 µg/mL
IC50 (Titer in TZM.bl cells) [37]: 0.018 µg/mL
IC80 (Titer in TZM.bl cells) [37]: 0.065 µg/mL

Source: patent US20240117018A1
